Key:
[1] = test system: SMAD1-mediated transcription; test: SMAD1-SBE CAT reporter assay; type: cell-based, human; conditions: following activation by constitutively active receptors
Protocol: (§1) Reporter assays using the GALA DNA binding domain fused to various forms of SMAD proteins were performed as described (Meersseman, G at al, Mech. Dev, 61: 127-140, 1997). Briefly, 420 nanograms (ng) DNA was transfected/well (24 well-plate seeded with 1×10^5 HEK 293T cells) one day prior to transfection. The DNA mix included a plasmid expressing β-galactosidase under the control of the RSV promoter, for normalization purposes and a reporter plasmid encoding firefly luciferase under the control of 5 GAL4 binding sites upstream of a minimal TATA box (pG5 luc, Promega, Mannheim) and combinations of effector plasmids. The DNA content was normalized with empty vector.
Cells were harvested and lysed. β-Galactosidase (β-gal) activity was measured via the luminescent β-galactosidase kit II (Clontech, Palo Alto, Calif.), and luciferase activity via the luciferase assay system (Promega, Mannheim). All results are expressed as luciferase activity normalized with β-gal values (“relative luciferase activities”). Reporter assays with the SMAD1 DNA binding element SBE-9 (GCCG×9) (Kusanagi K et al, Mol Biol Cell 11: 555-565, 2000) cloned into pCAT5 vector (Boshart M et al, Gene 110: 129-130, 1992) were performed similarly except that cells were lysed in CAT lysis buffer. CAT enzyme was measured via CAT ELISA assay and β-gal via chemiluminescent β-gal reporter gene assay (Roche, Mannheim). […]

[2] = test system: SMAD1 trans-activation potential; test: GAL4 DBD-SMAD1 luciferase trans-activation reporter assay; type: cell-based, human
Protocol: as §1
Cells were harvested and lysed. β-Galactosidase (β-gal) activity was measured via the luminescent β-galactosidase kit II (Clontech, Palo Alto, Calif.), and luciferase activity via the luciferase assay system (Promega, Mannheim). All results are expressed as luciferase activity normalized with β-gal values (“relative luciferase activities”). Reporter assays with the SMAD1 DNA binding element SBE-9 (GCCG×9) (Kusanagi K et al, Mol Biol Cell 11: 555-565, 2000) cloned into pCAT5 vector (Boshart M et al, Gene 110: 129-130, 1992) were performed similarly except that cells were lysed in CAT lysis buffer. CAT enzyme was measured via CAT ELISA assay and β-gal via chemiluminescent β-gal reporter gene assay (Roche, Mannheim).
To determine whether MH2 domains involved in TAK1 binding mediated inhibition of R-SMAD biological activity, a reporter assay measuring SMAD trans-activation potential was performed. Full-length SMAD1 and deletion mutants thereof were fused in-frame with the GAL4-DNA binding domain, and SMAD trans-activation potential was measured via UAS-driven-luciferase reporter expression (FIGS. 6B & C). The trans-activating potential of SMAD1/GAL4 hybrid molecules was measured with increasing amounts of TAK1 variants. […]

C3H10T½-BMP2 cells = test: Semi-quantitative RT-PCR of osteo-/chondrogenic marker genes and Alcian Blue staining; type: cell-based, murine; conditions: co-expression in C3H10T½-BMP2 cells
Protocol: Proteoglycan-secreting chondrocytes were identified by staining with Alcian Blue at pH 2.5 (Alcian Blue 8GS, Roth, Karlsruhe).
Total cellular RNA was prepared by TriReagent LS according to the manufacturer's protocol (Molecular Research Center Inc., Ohio, Miss.). Five μg of total RNA was reverse transcribed with oligo-dT primers and cDNA aliquots were subjected to PCR. RT-PCR was normalized by the transcriptional levels of HPRT. The primer pairs and PCR conditions used to evaluate osteo-/chondrogenic differentiation, for collagen Ia1, collagen IIa1, osteocalcin, and the PTH/PTHrP-receptor have been described (Hoffmann A et al, J. Cell Sci 115: 769-781, 2002).

trans-activating potential of GAL4-SMAD1-MH2 and GAL4-SMAD1-L+MH2 constructs ([2]; FIG. 6C): no effect
trans-activation activity after sharp drop from elevated value ([2]; higher amounts of TAK1dn): roughly 70%
increase of SMAD trans-activation ([2]; low concentrations of TAK1dn): 35%
B1: TAK1dn: dominant-negative TAK1 mutant (K63W), kinase inactive (protein)
chain: MSTASAASSSSSSSASEMIEAPSQVLNFEEIDYKEIEVEEVVGRGAFGVVCKAKWRAKDVAIWQIESESERKAFIVELRQLSRVNHPNIVKLYGACLNPVCLVMEYAEGGSLYNVLHGAEPLPYYTAAHAMSWCLQCSQGVAYLHSMQPKALIHRDLKPPNLLLVAGGTVLKICDFGTACDIQTHMTNNKGSAAWMAPEVFEGSNYSEKCDVFSWGIILWEVITRRKPFDEIGGPAFRIMWAVHNGTRPPLIKNLPKPIESLMTRCWSKDPSQRPSMEEIVKIMTHLMRYFPGADEPLQYPCQYSDEGQSNSATSTGSFMDIASTNTSNKSDTNMEQVPATNDTIKRLESKLLKNQAKQQSESGRLSLGASRGSSVESLPPTSEGKRMSADMSEIEARIVATAGNGQPRRRSIQDLTVTGTEPGQVSSRSSSPSVRMITTSGPTSEKPARSHPWTPDDSTDTNGSDNSIPMAYLTLDHQLQPLAPCPNSKESMAVFEQHCKMAQEYMKVQTEIALLLQRKQELVAELDQDEKDQQNTSRLVQEHKKLLDENKSLSTYYQQCKKQLEVIRSQQQKRQGTS
modifications: left off: small tags and cut ends
inhibition of SMAD1 transcription (CAT reporter), in words [1]: minimal inhibition
expression of osteogenic marker genes (osteocalcin, PTH/PTHrP receptor) (C3H10T½-BMP2 cells): no effect
